Test: label from the status in PepcDB records

Protein production, not failed:
MSEVNKKVQDGVDDYLEEEDFGQLLEAFDKSREEATTEGVIVEIKNDEVYVDIGKKSEGILALSEIQGDNSKLLFNVGDSIKVAVMGSRGGRSLLSHKKALRKEKVIEFIKNYQENQDDIFTVKVVGKNKGGLIVVDENDVEFFLPKSQYGFKETNNIIGKTFKVKIIKIDKDEQSIIVSRKKTLDDERRKRKELINNVAQQEDLIEGIVKKITTYGMFVDVGGVDGLVHYSEISYKGPVNPGTLYKEGDKVPVKVIKYDKERKHLSLSIKAALPDPWSEIKDTLDIGDTIKVIVSNIEPYGAFVDLGNDIEGFLHISEISWDKNIKNPKDYINKGQEIDVEVIEINPNERRLRVSLRNLLSRPFDEFMKSYKIADVVEGEITSVTSFGAFVKLGGIEGLLHNEDASWDRNDKCKDKFSQGDKIKVKIIKIDEENQKISLSTKELSSSPVQEYAKIHKVGDIVKGAIRDIKDFGVFVELSKNVDALIHKEDISTSMLENLKIGDDIEAAIVFIDEKKNRIRLSVKNLVRIKEREVLNEINNDDKVTLGDIIKDQLALEHHHHHH, MSFIEKMIGSLNDKREWKAMEARAKALPKEYHHAYKAIQKYMWTSGGPTDWQDTKRIFGGILDLFEEGAAEGKKVTDLTGEDVAAFCDELMKDTKTWMDKYRTKLNDSIGRD, MSFKNFKCVPKMIFGRGSFVQLDTVLEQERTDANDFVVFLVDDVHQHKPLAARVPNKAHDLVIYVNVDDEPTTVQVDELTAQVKAFNTKLPVSVVGLGGGSTMDLAKAVSLMLTNPGSSSEYQGWDLIKNPAVHHIGIPTVSGTGAEASRTAVLCGPVRKLGLNSDYTVFDQIIMDSELIAGVPTDQWFYTGMDCFIHCVESLQGTYLNEFAKAFAEKSMDLCREVYLDDHPEKDDKLMMASYMGGMSIAYSQVGACHAVSYGLGYVLGYHHGIGNCLAFDVLEEFYPEGVAEFRKMMEIHNITLPKNICKDLPDETIAKMVAVTKSMGPLWDNVYGKGWEEKVTDEMLTKLFRRI, MSFPLIFERSRKGRRGLKLVKAVPKAEDLIPKEHLREVPPRLPEVDELTLVRHYTGLSRRQVGVDTTFYPLGSCTMKYNPKLHEEAARLFADLHPYQDPRTAQGALRLMWELGEYLKALTGMDAITLEPAAGAHGELTGILIIRAYHEDRGEGRTRRVVLVPDSAHGSNPATASMAGYQVREIPSGPEGEVDLEALKRELGPHVAALMLTNPNTLGLFERRILEISRLCKEAGVQLYYDGANLNAIMGWARPGDMGFDVVHLNLHKTFTVPHGGGGPGSGPVGVKAHLAPYLPVPLVERGEEGFYLDFDRPKSIGRVRSFYGNFLALVRAWAYIRTLGLEGLKKAAALAVLNARYLKELLKEKGYRVPYDGPSMHEFVAQPPEGFRALDLAKGLLELGFHPPTVYFPLIVKEALMVEPTETEAKETLEAFAEAMGALLKKPKEWLENAPYSTPVRRLDELRANKHPKLTYFDEG, MSFQEIPIIDLQEAFDPATRSKFLEEVRDAIINVGFLLLKNYESLGPTEEDLQSIKQQAIEFFALPAKEKLQCEMLNSPHFLGYTRLANEITASHTDWREQIDLATELPAPKEGEPLYKNIEGPNLWPNPEVIPKFRPTIERFIEKMTALSNVFKDLVAESIGVDPKALNRYFKENQQCKMKLIAYPDVSELDGTKSAALDDTPETNQGVEPHRDSDLITYIYQATEHQNSLQVQNFQGHWITVPNIPGHLVVNNGQTLQAITGGVAKATIHRVLVPEKGTGTRISIPFFQTIDLDSSKGVVDNLPQEVIDLKNERDKKIKDWGVDTGFQFEPDVSKEPIGHAVFRNRIKSHQDVAKKWYPDVLKSVLQEYTH

Protein production, failed:
MSEYEVLLATKRRTPPDSSAGRSSQIWRRAFGHWLQGRNGSSSLSNQNEPRPCRVRRNAGSHGPPVCIPFALALPPRMDVRLPSRLAPPLGAVLLCTLLMGGPPPTVASPAVLFPSADTTSPRARRLLIQGTTEAQLGDYEEAISHFEAALEQVPEAPVLLLALADAHEAQGALSTALFYARRAQTQGSPRPSPYRRLAEMQRAAGDPAAALRTYQQLLDHVPNANDAHRARAAIQADLGRTKGAIQSYEIYLQRADSPPIDVYRRLLSLYRKTGDKDGVETTLRTLVERRPTVRSYQRRLGEYYADEGRPRKALALLAPLGRQFPNDEALRRQVQRLARQTGQSIASPTQRAQSDSTRSQSASPDAPLRRARSMYDAATASSPPDTAQLRAAAGVLRDVLHQSPDTEAALSLQAELYQAWGRPEEAGRAMERLLDLTPRAPGRWVRTAQTYQRAHLYARAAGVAEEGFLLFPGHMPLARTAAFARLRTGDPAKARRHFQDALSLLGDSTGAAAEAVLHAGLGLAKSRLGRPREADDALKNARALAPQHPQVVRLYARSLARQDDRLDQALDLAEQAVENAPDSPSAHRALGQVQFRRDELEAARRHLRIALDAGGPSATLLERLGDVEAALGNDTAAQTYWQRALDRNPDRSSLREKLAVPANS, MSFCKLVSFVLILHLLNSCLISCSSNDLSQIPKNFLSLAKREDFFDWMVGIRRRIHENPELGYEEVETSKLVKTELDKMGVSYKNPVAVTGVIGYVGTGHAPFVALRADMDALPIQEMVEWEHKSKIPGKMHACGHDAHTTMLLGAAKLLKEHQEELQEGGAGAKKIVEAGVLENVGAIFGLHVSNLLGLGQLSSREGLLMAGSGRFKATISGKGGHAALPQFAIDPVLAASNVILSLQHLVSREADPLDSQVVTVATFEGSDAFNVIPDSVTIGGTFRALLPKSFEQLKQRIVQVITTQASVNMCNATVDFLEDETPPFPPTVNNKTLHLFYKNVSVDMLGIENYVETLPVMVSEDFAFYQQAIPGHFSFVGMQNKSHSPMANPHSPFFEVNEELLPYGASLLASLATRYLLDSSSSPNKDEL, MSFESNQLMPIAALRGGPGTPAADVLTAFALRRKAEGIDVVGVIVPPEDAGSGHQGHGHGEGHGGGHEGCECRSELIDIATGDRYAMHQDLGSGSQACNLNSSSLALAAGAVERAVARKPALVVLSRFGGQEAVRGGLMSAFQAAIAAGVPVACVVTPKAEDVWNDFAQGLSVSLPPEADALEAWWRDHARGRNAALEHHHHHH, MSFKEEQVIKHHQDLANKSVSTFLLLGLDNSGKRKLSTSRTDGMMVVIVNHKTKTITLCSLLRDTFTKIYSQQYHGYQRIETAYTYGGDAAAVATVEHFLKLPIDYYVTLNWDGFIQAINDIGPLSVRVDRAFVGQNYWGHAVHFKAGLQEMNGARALAYARERHVDNDQYRGFRQQAVLYALLKRLNQGALVAKGSQIMGDVKGQVRTNMSEGDMLSLIKYRTVLKHYRVKRVTFQWRTFDTAGRSMVEVYPDSRQHTIAELQAAAGRRAPLEHHHHHH, MSFKGEITHLVPNELYAFKVVEGPFHYTGTYRFKPHPEGTWIEWVFEAEPGSFFGVLPPALLKKMVLAQFKKDVDNLQALAQKGEAYESVGNENKPTLETNKPPHKTQQMMERYARWILSHRRIVLEHHHHHH, MSFNVFSGSFGQIFKRSRKNSHEYKNENATFELIKSSILVAFSGALRIHLAFLLMYIQSNILVCIAGGLIIYTVYTLDRALGSEEDSVNRKELNGSNKKVGLTVSLLAFMVGTYILAGEEMLPLAFIPFVTGYLYSKGIKIGKFALKLKGGLGVKNIVVGLTWGIFIAGLAGSGCRNLIPVVLIFIFFGVKLFINSTIYDFKDIAGDTLAGINTLPVSLGVRKTRNLLTGMHLFSHLVIGVALIHGALAFEPLIVLYSFVCGLICIQKFTHPEYEEFPSQKMERTLLVDGESTSITGLRIAGYLIA, MSFSYGLAVPFVPTLVLLPQTSAAHVQRIRGGNILSLIDQPPPVVPTLTPPPQQARSGIRINKVTSSYAGLLTSVKEAGLLERCRRDYLLLLTLLVIAGAGVLVAFFFVGDSWLQLVVAAALGIVFTQFALFGHEAAHQQVFTSRAANEWAARLIATLMVGMSYAYWTDKHSRHHARPNVVNRDPDIAPGAIVFHNEVPTNRGRFSRAYGKRQGYLLFPLLLFLGWTLHIDSLKYLLKRGPVKFRWLELGLLGVRFGTYIGLLFLVLSPGIAVAFIGVQVAVFGLYMGGTFAPNHKGMPILPADSRADFLSRQVLTSRNITGGGFVTFLMGGLNYQIEHHLFPDMPRRHLREASQLVKAHCVRTGIPYTETSLMRSYSIVIRYLNTVGLAAADPFTCPLAGQHRP, MSFTGKDYSRFRSQQQRGNPHSSEGNTSAVHGTGQNSRPQTPINQASGASPQQGNQSPNGSVNHANPLASRLNDITLDELLDSLGRAGLLRLDPNRPPGTFWFEDDPSVPATVRSIFERDFKELHANWSMTPQHVVDRWFETFAQMYNWDKTINKRVKTEFEAKLKERMTDQVCRWKGKWREKGDAAMPRWFDPAVWAGLISFWRDPKSELKSINSRNARLHDPDGLGIHKHRSGQTSYKAHARKRCELTGETTPNFLVLLDKTHRKPDGSFIDGKSEEIYNEVSSRIQEESSQLCSNNTTESTASGGGSKEEREDIWGWFIAARSRMSSHWSFSSSRRSG, MSFTWRKKMDAKTNNAISKSMMFFHWVIGLGMIAVLISGLVMDDESNNLLFNAHMSFGLLVLALSVPRLVGRLIGGMPKPMTERSKFESIAAAVVMYSLLALTVVLPLSGIAVSVGEGYGLSLFGFELVSSGREIHMLKELGEGIHEFSGEALLPFLLVLHLGASFMHHFIKQDGTLLRMLGKA, MSFVLWLVGKKCIVDVGTNGKNSWKVGGKDGVACRDHSGFRLEKLGLFCWWKLQKDGCGQKLNRRKDHRAFPLPSVVNERPRKLND, MSFVSALCRLAVALWVGGATLFTFVLTPTIFRSESRDAAGRIVGYLFPGYFRWGLACGAVALVALLVVRGKNWIPAAALMVVMLAVTAFQALHIEPKAAELKRQIPSFETTTKDHPLRREFSKLHGISAACNLSVIAGGVVLVILL, MSFYIQLASLSIIILYVLLLFRNVDPLVATAVCVGLGFLWNISTPIDIGNAMADALGSFMALVGFIIMLGRGLGEVLTHTQVSHTLVHQIVYGVGVNTQRRAKIGIVLSSFIIVGLLGTLAGGLAILAPSLRPIAGSVGLSRPSLAVLMQASAEEALILGPFAPPVVTLLGVTGLSYGTVFLYASLPIAVVTLITTWFMASRLQKLYINEPCEDENSTEPFTPNRQQKRVTLIFLISFLFCVVYGLFTQAKTSYVIFVMLFLALITGLSCRLGLKQIFNLLFEGMQKSLHLFFLFILFDPFMALIHQAGGFNALTELLTPLINLGGKPVLSILIGFTGAFGMPGAAEATIKMLHQLFSPSVLQMQLPLITFALCMLFATRVTNYAYPGANMFAAMGFAGSENVKAMIQNGLVVTGVQVAFLIVYSLFIP, MSGHKCYSWELQDRFAQDKSVVNKMQQKYWETKQAFIKATGKKEDEHVVASDADLDAKLELFHSIQRTCLDLSKAIVLYQKRICFLSQEENELGKFLRSQGFQDKTRAGKMMQATGKALCFSSQQRLALRNPLCRFHQEVETFRHRAISDTWLTVNRMEQYRTEYRGALLWMKDVSQELDPDLYKQMEKFRKVQTQVRLAKKNFDKLKMDVCQKVDLLGASRCNLLSHMLATYQTTLLHFWEKTSHTMAAIHESFKGYQPYEFTTLKSLQDPMKKLVEKEGKKTSWRENREAVAPEPRQLISLEDEHKDSSTYKTEEGTSVLSSVDKGSVHDTCSGPIDELLDGKPEEACLGPTAGTPEPESGDKDDLLLLNEIFSTSCLDEGEFSREWAAVFGDDRLKEPAPMGAQGEPDPKPQIGSGFLPSQLLDQNMKDLQASLQEPAKAASDLTAWFSLFADLDPLSNPDAVGKTDKEHELLNA

Source: a protein production outcome set (Wang et al. 2014)
